Experimental data: patent US20240287481A1, “POLYMERASES FOR EFFICIENT INCORPORATION OF NUCLEOTIDES WITH 3'-PHOSPHATE AND OTHER 3'-TERMINATORS” (MGI Tech Co., Ltd., priority 2021, published 2024)

Key:
[1] = tested on: 3′-phosphate / 2′-phosphate nucleotides; conditions: cited from earlier work
[2] = tested on: 3′ phosphate-extended primer; assay: 3′ phosphate primer detection with antibodies in a microtiter plate (fluorescence); format: binding; conditions: for ratio to no primer: intensity primer / no primer; for fluorescence intensity: 5 min binding, wash at 60° C.
Method: 3′ phosphate blocked nucleotides were incorporated onto the terminal position of a primer and then reacted with unlabeled or labeled antibodies. After a short reaction time of less than 5 minutes, excess antibodies were washed from the reaction well and bound antibodies detected. In the case of unlabeled antibodies, a secondary fluorescently labeled antibody or nanobody was used to bind to the primary IgG before fluorescence detection. In the case of directly labeled primary antibodies, excess un-bound antibodies were washed away and fluorescence in the reaction well measured with a fluorescence plate reader.
Under some binding and wash conditions some non-specific binding of antibody was occurring on the target. […] The interaction of magnesium with the phosphates of the DNA phosphodiester bonds may be suppressing the ability of the antibodies to react with internal phosphates but still allowing recognition of the terminal phosphate. Specific binding in the presence of magnesium was 10-27 fold higher than without primer.

[3] = no primer (non-specific binding), 20 mM Mg buffer
[4] = no primer (non-specific binding), magnesium free buffer
[5] = primer extended with 3′ phosphate nucleotide, 20 mM Mg buffer
[6] = primer extended with 3′ phosphate nucleotide, magnesium free buffer

B1: Taq 475: Taq polymerase variant E520G, K540I, L616A (protein, UniProt P19821 1-832, looked up, variant E520G K540I L616A)
DNA polymerase I, thermostable: MRGMLPLFEPKGRVLLVDGHHLAYRTFHALKGLTTSRGEPVQAVYGFAKSLLKALKEDGDAVIVVFDAKAPSFRHEAYGGYKAGRAPTPEDFPRQLALIKELVDLLGLARLEVPGYEADDVLASLAKKAEKEGYEVRILTADKDLYQLLSDRIHVLHPEGYLITPAWLWEKYGLRPDQWADYRALTGDESDNLPGVKGIGEKTARKLLEEWGSLEALLKNLDRLKPAIREKILAHMDDLKLSWDLAKVRTDLPLEVDFAKRREPDRERLRAFLERLEFGSLLHEFGLLESPKALEEAPWPPPEGAFVGFVLSRKEPMWADLLALAAARGGRVHRAPEPYKALRDLKEARGLLAKDLSVLALREGLGLPPGDDPMLLAYLLDPSNTTPEGVARRYGGEWTEEAGERAALSERLFANLWGRLEGEERLLWLYREVERPLSAVLAHMEATGVRLDVAYLRALSLEVAEEIARLEAEVFRLAGHPFNLNSRDQLERVLFDELGLPAIGKTEKTGKRSTSAAVLGALREAHPIVEKILQYRELTILKSTYIDPLPDLIHPRTGRLHTRFNQTATATGRLSSSDPNLQNIPVRTPLGQRIRRAFIAEEGWLLVALDYSQIEARVLAHLSGDENLIRVFQEGRDIHTETASWMFGVPREAVDPLMRRAAKTINFGVLYGMSAHRLSQELAIPYEEAQAFIERYFQSFPKVRAWIEKTLEEGRRRGYVETLFGRRRYVPDLEARVKSVREAAERMAFNMPVQGTAADLMKLAMVKLFPRLEEMGARMLLQVHDELVLEAPKERAEAVARLAKEVMEGVYPLAVPLEVEVGIGEDWLSAKE
incorporation of 3′-phosphate nucleotides, in words [1]: does not incorporate 3′-phosphate nucleotides

B2: 12D6: rabbit monoclonal dTTP-3P antibody, SEQ ID NO: 51 and 52 (protein)
chain 1: METGLRWLLLVAVLKGVQCQSLEESGGRLVTPGTPLTLTCTVSGIDLSSYTITWVRQAPGKGLEWIGYIYVHDGATYYANWAKGRFTISRTSSTTVDLKMTSLTTEDTATYFCASGGGTTYYRIWGPGTLVTVSSGQPKAPSVFPLAPCCGDTPSSTVTLGCLVKGYLPEPVTVTWNSGTLTNGVRTFPSVRQSSGLYSLSSVVSVTSSSQPVTCNVAHPATNTKVDKTVAPSTCSKPMCPPPELPGGPSVFIFPPKPKDTLMISRTPEVTCVVVDVSQDDPEVQFTWYINNEQVRTARPPLREQQFNSTIRVVSTLPIAHQDWLRGKEFKCKVHNKALPAPIEKTISKARGQPLEPKVYTMGPPREELSSRSVSLTCMINGFYPSDISVEWEKNGKAEDNYKTTPTVLDSDGSYFLYSKLSVPTSEWQRGDVFTCSVMHEALHNHYTQKSISRSPGK
chain 2: MDTRAPTQLLGLLLLWLPGATFAQLLTQTPPSVSAPVGGTVTINCQSSQSVYGHNRLSWYQQKPGQPPKLLIYYTSTLASGVPSRFKGSGSGTQFTLTISDLECDDAATYYCAGGYNGNIYAFGGGTEVVVKGDPVAPTVLIFPPAADQVATGTVTIVCVANKYFPDVTVTWEVDGTTQTTGIENSKTPQNSADCTYNLSSTLTLTSTQYNSHKEYTCKVTQGTTSVVQSFNRGDC
modifications: dTTP-3P
ratio to no primer ([2]; 20 mM Mg buffer): 20.6 | ratio to no primer ([2]; magnesium free buffer): 1.7 | fluorescence intensity [2, 3]: 13278 | fluorescence intensity [2, 4]: 206733 | fluorescence intensity [2, 5]: 273502 | fluorescence intensity [2, 6]: 345210

B3: 18B10: rabbit monoclonal dATP-3P antibody, SEQ ID NO: 39 and 40 (protein)
chain 1: METGLRWLLLVAVLKGVQCQSVEESGGRLVTPGTPLTLTCTVSGIDLSSYAMGWVRQAPGKGLEWIGMISRRGTSYYASWARGRFTISKTSTTVDLKITSPTTEETATYFCARATYDDYTDLNLWGQGTLVTVSSGQPKAPSVFPLAPCCGDTPSSTVTLGCLVKGYLPEPVTVTWNSGTLTNGVRTFPSVRQSSGLYSLSSVVSVTSSSQPVTCNVAHPATNTKVDKTVAPSTCSKPMCPPPELPGGPSVFIFPPKPKDTLMISRTPEVTCVVVDVSQDDPEVQFTWYINNEQVRTARPPLREQQFNSTIRVVSTLPIAHQDWLRGKEFKCKVHNKALPAPIEKTISKARGQPLEPKVYTMGPPREELSSRSVSLTCMINGFYPSDISVEWEKNGKAEDNYKTTPTVLDSDGSYFLYSKLSVPTSEWQRGDVFTCSVMHEALHNHYTQKSISRSPGK
chain 2: MDTRAPTQLLGLLLLWLPGATFAQVLTQTPSSVSAAVGGTVTINCQSSQSVYNNNLLSWYQQKPGQPPKLLIYKTSSLASGVPSRFSGSGSGTQFTLTISGVQCDDAATYYCLGGYYSGSGWYSTFGGGTEVVVKGDPVAPTVLIFPPSADLVATGTVTIVCVANKYFPDVTVTWEVDGTTQTTGIENSKTPQNSADCTYNLSSTLTLTSTQYNSHKEYTCKVTQGTTSVVQSFNRGDC
modifications: dATP-3P
ratio to no primer ([2]; 20 mM Mg buffer): 27.1 | ratio to no primer ([2]; magnesium free buffer): 3.0 | fluorescence intensity [2, 3]: 8820 | fluorescence intensity [2, 4]: 88385 | fluorescence intensity [2, 5]: 238771 | fluorescence intensity [2, 6]: 265039

B4: 2F7: rabbit monoclonal dCTP-3P antibody, SEQ ID NO: 43 and 44 (protein)
chain 1: METGLRWLLLVAVLKGVQCQSVEESGGRLVTPGTPLTLTCTVSGFSLSNYAIIWVRQAPGEGLEYIGFISRTGSINYANWAKGRFTISKTSTTVDLKITSPTTEDTATYFCARTDYFANGDIWGPGTLVTVSSGQPKAPSVFPLAPCCGDTPSSTVTLGCLVKGYLPEPVTVTWNSGTLTNGVRTFPSVRQSSGLYSLSSVVSVTSSSQPVTCNVAHPATNTKVDKTVAPSTCSKPMCPPPELPGGPSVFIFPPKPKDTLMISRTPEVTCVVVDVSQDDPEVQFTWYINNEQVRTARPPLREQQFNSTIRVVSTLPIAHQDWLRGKEFKCKVHNKALPAPIEKTISKARGQPLEPKVYTMGPPREELSSRSVSLTCMINGFYPSDISVEWEKNGKAEDNYKTTPTVLDSDGSYFLYSKLSVPTSEWQRGDVFTCSVMHEALHNHYTQKSISRSPGK
chain 2: MDTRVPTQLLGLLLLWLPGARCADVVMTQTPASVSEPVGGTVTIKCQASQSINSWLSWYQQKPGQPPKLLIYAASTLASGVPSRFKGSGSGTQFTLTISDLECADAATYFCQSYDMIVNHGAPFGGGTGVVVSGDPVAPTVLIFPPAADQVATGTVTIVCVANKYFPDVTVTWEVDGTTQTTGIENSKTPQNSADCTYNLSSTLTLTSTQYNSHKEYTCKVTQGTTSVVQSFNRGDC
modifications: dCTP-3P
ratio to no primer ([2]; 20 mM Mg buffer): 16.2 | ratio to no primer ([2]; magnesium free buffer): 8.8 | fluorescence intensity [2, 3]: 11357 | fluorescence intensity [2, 4]: 19124 | fluorescence intensity [2, 5]: 183669 | fluorescence intensity [2, 6]: 167623
